Measured values taken from article PMC5571939, “The nature of the Syntaxin4 C-terminus affects Munc18c-supported SNARE assembly” (PLoS ONE, 2017).
Changes are numbered by the printed parent chain. Numbers in names are those of the source.

T1: HL-Munc18c (mouse, UniProt Q60770 1-592)
T1 construct: Munc18c (Munc18-3), mouse; The linker is said to have 53 amino acids; also called Munc18c with N-terminal His6-tag and long linker; source: E. coli, purified as described previously [39]; not shown: His6 with long linker ([residues removed]), N-terminal, kept
T1 sequence (looked up): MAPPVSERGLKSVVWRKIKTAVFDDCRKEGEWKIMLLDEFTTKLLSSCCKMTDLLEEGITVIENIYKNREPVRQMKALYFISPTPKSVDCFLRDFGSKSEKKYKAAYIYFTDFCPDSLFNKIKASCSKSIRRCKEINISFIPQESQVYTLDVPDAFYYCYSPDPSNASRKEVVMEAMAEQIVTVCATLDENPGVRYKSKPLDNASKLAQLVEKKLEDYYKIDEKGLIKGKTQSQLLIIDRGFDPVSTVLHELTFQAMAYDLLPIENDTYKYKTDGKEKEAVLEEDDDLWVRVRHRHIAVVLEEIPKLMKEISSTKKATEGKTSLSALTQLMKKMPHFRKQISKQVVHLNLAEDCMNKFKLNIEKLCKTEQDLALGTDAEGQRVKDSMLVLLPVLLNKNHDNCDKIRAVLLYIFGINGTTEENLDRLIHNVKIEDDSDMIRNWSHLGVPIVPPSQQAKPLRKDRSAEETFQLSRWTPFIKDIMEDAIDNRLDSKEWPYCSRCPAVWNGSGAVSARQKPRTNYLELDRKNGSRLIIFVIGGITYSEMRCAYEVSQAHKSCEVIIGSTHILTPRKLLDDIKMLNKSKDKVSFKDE

T2: Munc18c:Sx4_(1-275)-His pre-formed complex (rat | mouse, UniProt Q08850 1-275; Q60770 1-592, C141S)
T2 construct: as m1; Munc18c (Munc18-3), mouse; as m10; m1 immobilised by its C-terminal His6 and complexed with m10 before SNAP23 and VAMP2 were added; also called Munc18c/Sx4-His; source: formed on TALON Co2+ beads from purified E. coli proteins; not shown: His6, C-terminal, kept; His6, N-terminal, cleaved
T2 sequence (looked up) 1: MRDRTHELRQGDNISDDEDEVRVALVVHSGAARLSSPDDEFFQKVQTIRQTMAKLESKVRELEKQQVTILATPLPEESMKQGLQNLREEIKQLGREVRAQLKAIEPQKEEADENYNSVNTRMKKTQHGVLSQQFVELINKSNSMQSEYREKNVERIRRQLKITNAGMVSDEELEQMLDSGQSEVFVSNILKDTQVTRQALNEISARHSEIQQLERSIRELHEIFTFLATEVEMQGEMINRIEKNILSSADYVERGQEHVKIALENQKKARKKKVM
T2 sequence (looked up) 2: T1 sequence (looked up)

T3: Munc18c:Sx4_(1-298)-TMD (HL-Munc18c with de-tagged full-length Sx4, pre-formed) (mouse, UniProt Q60770 1-592; P70452 1-298)
T3 construct: Munc18c (Munc18-3), mouse; as m12; Syntaxin4 (Sx4) with its C-terminal transmembrane domain, mouse, amino acids 1-298; as m6; also called HL-Munc18c/Sx4 binary complex; source: formed on TALON Co2+ beads from purified E. coli proteins; not shown: His6 with long linker ([residues removed]), N-terminal, kept; His6, N-terminal, cleaved
T3 sequence (looked up) 1: T1 sequence (looked up)
T3 sequence (looked up) 2: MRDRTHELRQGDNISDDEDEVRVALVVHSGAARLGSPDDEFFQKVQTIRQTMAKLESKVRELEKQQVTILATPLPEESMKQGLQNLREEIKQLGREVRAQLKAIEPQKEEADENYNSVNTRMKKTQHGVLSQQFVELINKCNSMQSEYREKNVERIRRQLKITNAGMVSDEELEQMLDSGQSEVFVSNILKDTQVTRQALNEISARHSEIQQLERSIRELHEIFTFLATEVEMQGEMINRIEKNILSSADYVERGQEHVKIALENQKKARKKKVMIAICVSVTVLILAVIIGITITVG

B1: Alexa488-labeled Sx4_(1-275)-His (native C141) (domain or fragment, rat, UniProt Q08850 1-275, looked up)
chain: T2 sequence (looked up) 1 with S141C
modifications: Alexa Fluor 488 C5 maleimide on cysteine (native C141 rather than C141S)
notes: Degree of labeling greater than 90%; not shown: His6, C-terminal, kept
B2: Sx4_(1-275)-His (domain or fragment, rat, UniProt Q08850 1-275, looked up)
chain: T2 sequence (looked up) 1
notes: also called Syntaxin4 soluble cytoplasmic domain with C-terminal His6; source: E. coli, purified as described previously [17, 28]; not shown: His6, C-terminal, kept
B3: Munc18c (de-tagged) (natural protein, mouse, UniProt Q60770 1-592, looked up)
chain: T1 sequence (looked up)
notes: Munc18c (Munc18-3), mouse; also called detagged Munc18c; HTMunc18c after TEV cleavage; source: E. coli, purified (IMAC, TEV cleavage, reverse IMAC, SEC); not shown: His6, N-terminal, cleaved
B4: HMunc18c (natural protein, mouse, UniProt Q60770 1-592, looked up)
chain: T1 sequence (looked up)
notes: Munc18c (Munc18-3), mouse; also called Munc18c with an N-terminal His6-tag; source: E. coli, purified as described previously [39]; not shown: His6, N-terminal, kept
B5: Sx4_(1-298)-TMD (de-tagged, in detergent micelles) (natural protein, mouse, UniProt P70452 1-298, looked up)
chain: T3 sequence (looked up) 2
notes: Syntaxin4 (Sx4) with its C-terminal transmembrane domain, mouse, amino acids 1-298, synthetic gene (GenScript); Mouse, whereas the soluble Sx4 constructs are rat; also called full-length Sx4; HT-Sx4-TMD after TEV cleavage; source: E. coli Lemo21 (DE3), purified in DDM (TALON Co2+ IMAC, TEV cleavage, reverse IMAC); not shown: His6, N-terminal, cleaved
B6: SNAP23 (GST-cleaved) (natural protein, mouse, UniProt O09044 1-210, looked up)
chain: MDNLSPEEVQLRAHQVTDESLESTRRILGLAIESQDAGIKTITMLDEQGEQLNRIEEGMDQINKDMREAEKTLTELNKCCGLCICPCNRTKNFESGKNYKATWGDGGDNSPSNVVSKQPSRITNGQPQQTTGAASGGYIKRITNDAREDEMEENLTQVGSILGNLKNMALDMGNEIDAQNQQIQKITEKADTNKNRIDIANTRAKKLIDS
notes: SNAP23, mouse, amino acids 1-210; source: purified (GSH-agarose, thrombin cleavage, MonoQ anion exchange)

Assays:
Conditions in all cases: both partners purified
HMunc18c = target: B4; test: fluorescence polarisation; fluorescence anisotropy kinetics, both in solution: Alexa488-labeled Sx4 (50 nM) with HMunc18c at 100–2500 nM; 25°C; 25 mM HEPES pH 8.0, 200 mM NaCl, 1 mM TCEP, 2% glycerol; global 1:1 fit (Dynafit 4.0)
Munc18c (de-tagged) = target: B3; test: BLI; C-terminally His-tagged Sx4 constructs loaded on Ni-NTA biosensors; de-tagged Munc18c 10/25–400 nM in solution; 25 mM Tris-Cl pH 7.5, 150 mM NaCl, 10 mM imidazole, 0.1% TX-100, 10% glycerol, 2 mM βME; BLItz; 1:1 fit
Sx4_(1-275)-T4L-His [1] = target: T4, Sx4_(1-275)-T4L-His (rat | phage T4 (from the name T4 …, UniProt Q08850 1-275; P00720 1-164, C141S); test: as above
T4 construct: T4 lysozyme (T4L), amino acids 1-164, synthetic gene (GeneArt); Sx4 ligated between NdeI and HindIII, T4L between HindIII and XhoI of pET20b; also called Sx4 cytoplasmic domain with C-terminal T4-lysozyme fusion and His6; source: E. coli, purified; not shown: His6, C-terminal, kept

Sx4_(1-275)-T4L-His [2] = target: T4, Sx4_(1-275)-T4L-His; test: ITC; Sx4-T4L-His construct (200–250 μM) titrated into HMunc18c (20–40 μM) in the cell; 298 K; 25 mM HEPES pH 8.0, 200 mM NaCl, 10% glycerol, 2 mM β-ME; single site model
[3] = target: T5, Alexa488-labeled Sx4_(1-275)-T4L-His (native C141) (rat | phage T4 (from the name T4 …, UniProt Q08850 1-275)); P00720 1-164, Alexa Fluor 488 C5 maleimide on cysteine (native C141 rather than C141S)); test: fluorescence polarisation; fluorescence anisotropy kinetics, both in solution: Alexa488-labeled Sx4 (50 nM) with HMunc18c at 100–2500 nM; 25°C; 25 mM HEPES pH 8.0, 200 mM NaCl, 1 mM TCEP, 2% glycerol; global 1:1 fit (Dynafit 4.0)
T5 construct: T4 lysozyme (T4L), amino acids 1-164, synthetic gene (GeneArt); Degree of labeling greater than 90%; not shown: His6, C-terminal, kept

HL-Munc18c = target: T1, HL-Munc18c; test: pull-down; HL-Munc18c (20 μg, 1.4 μM) immobilised on TALON Co2+ beads; de-tagged Sx4 proteins (50 μg) added for 4 h (legend: 6 h), washed; binding buffer with 0.1% Triton X-100; SDS-PAGE, Coomassie
[4] = target: T2, Munc18c:Sx4_(1-275)-His pre-formed …; test: pull-down; Sx4-His proteins immobilised by C-terminal His6 on Co2+ resin, pre-complexed with de-tagged Munc18c or without it (controls); GST-cleaved SNAP23 and VAMP2 (40 μg) added together, overnight, 4°C; SDS-PAGE, Coomassie
Sx4_(1-275)-His = target: B2; test: as above
[5] = target: T3, Munc18c:Sx4_(1-298)-TMD (HL-Munc18c …); test: pull-down; beads with pre-formed HL-Munc18c/Sx4 binary complexes incubated with SNAP23 (100 μg, 21.7 μM) and VAMP2 (80 μg, 31.7 μM) together, overnight, 4°C; SDS-PAGE, Coomassie

Binder: B1
- Kd (HMunc18c): 502 nM
- koff (HMunc18c): 0.000653 s⁻¹
- kon (HMunc18c): 1300 M⁻¹ s⁻¹

Binder: B2
- Kd (Munc18c (de-tagged)): 21 nM
- koff (Munc18c (de-tagged)): 0.0086 s⁻¹
- kon (Munc18c (de-tagged)): 530000 M⁻¹ s⁻¹

Binder: B3
- Kd (Sx4_(1-275)-T4L-His [1]): 20 nM
- koff (Sx4_(1-275)-T4L-His [1]): 0.0078 s⁻¹
- kon (Sx4_(1-275)-T4L-His [1]): 430000 M⁻¹ s⁻¹

Binder: B4
- Kd (Sx4_(1-275)-T4L-His [2]): 100 nM
- Kd [3]: 148 nM
- koff [3]: 7.5e-05 s⁻¹
- kon [3]: 502 M⁻¹ s⁻¹

Binder: B5
- binding result (HL-Munc18c): binds

Binder: B6
- binding result [4]: binds
- binding result (Sx4_(1-275)-His): binds
- binding result [5]: binds
